Laboratory results reported in paper PMC2919722.
Substitutions are numbered along the chain they refer to. Like-named read-outs stand apart in the source and are kept apart here.

T1: GST-MBD1 MBD (1-161) (UniProt Q9UIS9 1-161)
T1 sequence: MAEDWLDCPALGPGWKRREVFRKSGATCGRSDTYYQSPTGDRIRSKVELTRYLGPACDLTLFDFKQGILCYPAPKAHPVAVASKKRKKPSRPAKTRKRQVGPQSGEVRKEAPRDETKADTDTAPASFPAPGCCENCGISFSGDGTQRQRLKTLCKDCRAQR

T2: MBD1 CXXC3 (UniProt Q9UIS9-5 252-344)
T2 sequence: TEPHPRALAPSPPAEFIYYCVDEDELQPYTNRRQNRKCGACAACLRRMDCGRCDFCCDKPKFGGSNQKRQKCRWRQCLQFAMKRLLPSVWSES

B1: A/T run mutated, methylated (dsDNA)
DNA 1: ACATGCCTCATGCCGGACTCGACTGCAGCT
DNA 2: AGCTGCAGTCGAGTCCGGCATGAGGCATGT
modifications: 5mC at C14 and opposite strand CpG (implied)
B2: CCGC, unmethylated (dsDNA)
DNA 1: B1 DNA 1 with G16C, C20T, G21A
DNA 2: B1 DNA 2 with C10T, G11A, C15G
B3: CCGT, unmethylated (dsDNA)
DNA 1: B1 DNA 1 with G16T, C20T, G21A
DNA 2: B1 DNA 2 with C10T, G11A, C15A
B4: TTmCGCA, methylated (dsDNA)
DNA 1: ACATGCCTCATTTCGCACTTAACTGCAGCT
DNA 2: AGCTGCAGTTAAGTGCGAAATGAGGCATGT
modifications: 5mC at CpG, both strands (implied)
B5: CCGA, unmethylated (dsDNA)
DNA 1: B1 DNA 1 with G16A, C20T, G21A
DNA 2: B1 DNA 2 with C10T, G11A, C15T
B6: GCGG, unmethylated (dsDNA)
DNA 1: B1 DNA 1 with C13G, C20T, G21A
DNA 2: B1 DNA 2 with C10T, G11A, G18C
B7: ACGG, unmethylated (dsDNA)
DNA 1: B1 DNA 1 with C13A, C20T, G21A
DNA 2: B1 DNA 2 with C10T, G11A, G18T
B8: TmCGG, methylated (dsDNA)
DNA 1: B4 DNA 1 with T12G, C16G
DNA 2: B4 DNA 2 with G15C, A19C
modifications: 5mC at CpG, both strands (implied)
B9: CCGG, unmethylated (dsDNA)
DNA 1: B1 DNA 1 with C20T, G21A
DNA 2: B1 DNA 2 with C10T, G11A
B10: TGmCGCA, methylated (dsDNA)
DNA 1: B4 DNA 1 with T13G
DNA 2: B4 DNA 2 with A18C
modifications: 5mC at CpG, both strands (implied)
B11: TCGG, unmethylated (dsDNA)
DNA 1: B4 DNA 1 with T12G, C16G
DNA 2: B4 DNA 2 with G15C, A19C
B12: CmCGC, methylated (dsDNA)
DNA 1: B4 DNA 1 with T12G, T13C
DNA 2: B4 DNA 2 with A18G, A19C
modifications: 5mC at CpG, both strands (implied)

Assays:
Test in all cases: EMSA
GST-MBD1 MBD (1-161) [1] = biological target: T1, GST-MBD1 MBD (1-161)
MBD1 CXXC3 = biological target: T2, MBD1 CXXC3
GST-MBD1 MBD (1-161) [2] = biological target: T1, GST-MBD1 MBD (1-161); remark: listed apart in the source
GST-MBD1 MBD (1-161) [3] = biological target: T1, GST-MBD1 MBD (1-161); remark: listed apart in the source
GST-MBD1 MBD (1-161) [4] = biological target: T1, GST-MBD1 MBD (1-161); remark: listed apart in the source
GST-MBD1 MBD (1-161) [5] = biological target: T1, GST-MBD1 MBD (1-161); remark: listed apart in the source

Binder | binding result (MBD1 CXXC3) | also measured
B1 |  | binding result (GST-MBD1 MBD (1-161) [1]): binds
B2 | binds | 
B3 | binds | 
B4 |  | binding result (GST-MBD1 MBD (1-161) [2]): binds
B5 | binds | 
B6 | binds | 
B7 | binds | 
B8 |  | binding result (GST-MBD1 MBD (1-161) [3]): binds
B9 | binds | 
B10 |  | binding result (GST-MBD1 MBD (1-161) [4]): binds
B11 | binds | 
B12 |  | binding result (GST-MBD1 MBD (1-161) [5]): binds
